{"source": "patent US20170314054A1", "about": "(ROCHE SEQUENCING SOLUTIONS, published 2017)", "note": "No end group written: not given here."}
{"molecular_target": "T1, microbial transglutaminase from Streptomyces mobaraensis (MTG) (Streptomyces mobaraensis, UniProt P81453 77-407)", "T1 sequence (looked up)": "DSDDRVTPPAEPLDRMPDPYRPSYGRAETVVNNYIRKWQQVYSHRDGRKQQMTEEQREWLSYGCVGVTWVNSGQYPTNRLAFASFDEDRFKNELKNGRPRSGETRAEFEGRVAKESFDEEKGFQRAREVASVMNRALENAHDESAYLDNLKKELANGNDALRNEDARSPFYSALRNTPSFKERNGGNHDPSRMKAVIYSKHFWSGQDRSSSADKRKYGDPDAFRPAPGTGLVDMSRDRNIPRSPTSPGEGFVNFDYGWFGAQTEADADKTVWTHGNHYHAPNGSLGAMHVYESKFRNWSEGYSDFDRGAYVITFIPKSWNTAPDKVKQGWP", "assay": "cell-based or functional assay"}
{"binder": "SYALQ (not fully specified)", "note": "[SYALQ (SEQ ID NO: 18)]", "Log2(signal), array MTG labeling with N-(Biotinyl)cadaverine": "15.2 Log2(signal)"}
{"binder": "DFALQ", "note": "[DFALQ (SEQ ID NO: 7)]", "Log2(signal), array MTG labeling with N-(Biotinyl)cadaverine": "15.4 Log2(signal)"}
{"binder": "HYALQ (also: flanked by G:S (3:1) linkers on peptide array)", "note": "[HYALQ (SEQ ID NO: 19)]", "Log2(signal), array MTG labeling with N-(Biotinyl)cadaverine": "15.2 Log2(signal)"}
{"binder": "NFVLQ (not fully specified; also: flanked by G:S (3:1) linkers on peptide array)", "note": "[NFVLQ (SEQ ID NO: 25)]", "Log2(signal), array MTG labeling with N-(Biotinyl)cadaverine": "15.2 Log2(signal)"}
{"binder": "DYVAQ", "note": "[DYVAQ (SEQ ID NO: 20)]", "Log2(signal), array MTG labeling with N-(Biotinyl)cadaverine": "15.2 Log2(signal)"}
{"binder": "EFALQ (also: flanked by G:S (3:1) linkers on peptide array)", "note": "[EFALQ (SEQ ID NO: 23)]", "Log2(signal), array MTG labeling with N-(Biotinyl)cadaverine": "15.2 Log2(signal)"}
{"binder": "RYALQ (not fully specified)", "note": "[RYALQ (SEQ ID NO: 14)]", "Log2(signal), array MTG labeling with N-(Biotinyl)cadaverine": "15.3 Log2(signal)"}
{"binder": "DYALQ", "note": "[DYALQ (SEQ ID NO: 1)]", "Log2(signal), array MTG labeling with N-(Biotinyl)cadaverine": "15.5 Log2(signal)"}
{"binder": "DFYLQ", "note": "[DFYLQ (SEQ ID NO: 22)]", "Log2(signal), array MTG labeling with N-(Biotinyl)cadaverine": "15.2 Log2(signal)"}
{"binder": "YFALQ (not fully specified)", "note": "[YFALQ (SEQ ID NO: 15)]", "Log2(signal), array MTG labeling with N-(Biotinyl)cadaverine": "15.3 Log2(signal)"}
{"binder": "EYVLQ (not fully specified; also: flanked by G:S (3:1) linkers on peptide array)", "note": "[EYVLQ (SEQ ID NO: 6)]", "Log2(signal), array MTG labeling with N-(Biotinyl)cadaverine": "15.4 Log2(signal)"}
{"binder": "DYFLQ", "note": "[DYFLQ (SEQ ID NO: 8)]", "Log2(signal), array MTG labeling with N-(Biotinyl)cadaverine": "15.4 Log2(signal)"}
{"binder": "FYALQ (also: flanked by G:S (3:1) linkers on peptide array)", "note": "[FYALQ (SEQ ID NO: 10)]", "Log2(signal), array MTG labeling with N-(Biotinyl)cadaverine": "15.4 Log2(signal)"}
{"binder": "EFVAQ (also: flanked by G:S (3:1) linkers on peptide array)", "note": "[EFVAQ (SEQ ID NO: 21)]", "Log2(signal), array MTG labeling with N-(Biotinyl)cadaverine": "15.2 Log2(signal)"}
{"binder": "PYALQ (also: flanked by G:S (3:1) linkers on peptide array)", "note": "[PYALQ (SEQ ID NO: 5)]", "Log2(signal), array MTG labeling with N-(Biotinyl)cadaverine": "15.4 Log2(signal)"}
{"binder": "NYALQ (also: flanked by G:S (3:1) linkers on peptide array)", "note": "[NYALQ (SEQ ID NO: 3)]", "Log2(signal), array MTG labeling with N-(Biotinyl)cadaverine": "15.5 Log2(signal)"}
{"binder": "EYVAQ (also: flanked by G:S (3:1) linkers on peptide array)", "note": "[EYVAQ (SEQ ID NO: 13)]", "Log2(signal), array MTG labeling with N-(Biotinyl)cadaverine": "15.3 Log2(signal)"}
{"binder": "DYVLQ (also: flanked by G:S (3:1) linkers on peptide array)", "note": "[DYVLQ (SEQ ID NO: 2)]", "Log2(signal), array MTG labeling with N-(Biotinyl)cadaverine": "15.5 Log2(signal)"}
{"binder": "PYVLQ (also: flanked by G:S (3:1) linkers on peptide array)", "note": "[PYVLQ (SEQ ID NO: 16)]", "Log2(signal), array MTG labeling with N-(Biotinyl)cadaverine": "15.3 Log2(signal)"}
{"binder": "DYTLQ", "note": "[DYTLQ (SEQ ID NO: 11)]", "Log2(signal), array MTG labeling with N-(Biotinyl)cadaverine": "15.3 Log2(signal)"}
{"binder": "EYFLQ (also: flanked by G:S (3:1) linkers on peptide array)", "note": "[EYFLQ (SEQ ID NO: 24)]", "Log2(signal), array MTG labeling with N-(Biotinyl)cadaverine": "15.2 Log2(signal)"}
{"binder": "NYFLQ (also: flanked by G:S (3:1) linkers on peptide array)", "note": "[NYFLQ (SEQ ID NO: 9)]", "Log2(signal), array MTG labeling with N-(Biotinyl)cadaverine": "15.4 Log2(signal)"}
{"binder": "EYALQ (also: flanked by G:S (3:1) linkers on peptide array)", "note": "[EYALQ (SEQ ID NO: 4)]", "Log2(signal), array MTG labeling with N-(Biotinyl)cadaverine": "15.5 Log2(signal)"}
{"binder": "WYALQ (not fully specified)", "note": "[WYALQ (SEQ ID NO: 17)]", "Log2(signal), array MTG labeling with N-(Biotinyl)cadaverine": "15.3 Log2(signal)"}
{"binder": "NYVLQ (also: flanked by G:S (3:1) linkers on peptide array)", "note": "[NYVLQ (SEQ ID NO: 12)]", "Log2(signal), array MTG labeling with N-(Biotinyl)cadaverine": "15.3 Log2(signal)"}
{"molecular_target": "T1, microbial transglutaminase from …", "assay": "cell-based or functional assay", "remark": "another data set of the same source"}
{"binder": "RSKLG (not fully specified)", "note": "[RSKLG (SEQ ID NO: 58)]", "A (array MTG labeling signal with Z-Gln-Gly-CAD-biotin)": 13.4}
{"binder": "KLSKL (also: flanked by G:S (3:1) linkers on peptide array)", "note": "[KLSKL (SEQ ID NO: 57)]", "A (array MTG labeling signal with Z-Gln-Gly-CAD-biotin)": 13.4}
{"binder": "RSKSK (not fully specified)", "note": "[RSKSK (SEQ ID NO: 62)]", "A (array MTG labeling signal with Z-Gln-Gly-CAD-biotin)": 13.4}
{"binder": "KSKLA (also: flanked by G:S (3:1) linkers on peptide array)", "note": "[KSKLA (SEQ ID NO: 55)]", "A (array MTG labeling signal with Z-Gln-Gly-CAD-biotin)": 13.4}
{"binder": "ARSKL", "note": "[ARSKL (SEQ ID NO: 54)]", "A (array MTG labeling signal with Z-Gln-Gly-CAD-biotin)": 13.4}
{"binder": "SKSKL (not fully specified)", "note": "[SKSKL (SEQ ID NO: 63)]", "A (array MTG labeling signal with Z-Gln-Gly-CAD-biotin)": 13.4}
{"binder": "FTKSK (also: flanked by G:S (3:1) linkers on peptide array)", "note": "[FTKSK (SEQ ID NO: 64)]", "A (array MTG labeling signal with Z-Gln-Gly-CAD-biotin)": 13.4}
{"binder": "RGTKL (also: flanked by G:S (3:1) linkers on peptide array)", "note": "[RGTKL (SEQ ID NO: 60)]", "A (array MTG labeling signal with Z-Gln-Gly-CAD-biotin)": 13.4}
{"binder": "RGSKL (also: flanked by G:S (3:1) linkers on peptide array)", "note": "[RGSKL (SEQ ID NO: 59)]", "A (array MTG labeling signal with Z-Gln-Gly-CAD-biotin)": 13.4}
{"binder": "TKSKL (not fully specified)", "note": "[TKSKL (SEQ ID NO: 56)]", "A (array MTG labeling signal with Z-Gln-Gly-CAD-biotin)": 13.4}
{"binder": "FPKLK (also: flanked by G:S (3:1) linkers on peptide array)", "note": "[FPKLK (SEQ ID NO: 61)]", "A (array MTG labeling signal with Z-Gln-Gly-CAD-biotin)": 13.4}
{"binder": "KLKYK (also: flanked by G:S (3:1) linkers on peptide array)", "note": "[KLKYK (SEQ ID NO: 65)]", "A (array MTG labeling signal with Z-Gln-Gly-CAD-biotin)": 13.4}
